This assay concerns the target T1, His-VIK (Arabidopsis, UniProt Q9XI87 1-438).
T1 construct: VIK, Arabidopsis, AT1G14000, N-terminal 6 x histidine tag and a full-length VIK protein; also called recombinant His-VIK; source: E. coli BL21 (DE3), purified (Ni NTA beads); not shown: His6, N-terminal, kept
T1 sequence (looked up): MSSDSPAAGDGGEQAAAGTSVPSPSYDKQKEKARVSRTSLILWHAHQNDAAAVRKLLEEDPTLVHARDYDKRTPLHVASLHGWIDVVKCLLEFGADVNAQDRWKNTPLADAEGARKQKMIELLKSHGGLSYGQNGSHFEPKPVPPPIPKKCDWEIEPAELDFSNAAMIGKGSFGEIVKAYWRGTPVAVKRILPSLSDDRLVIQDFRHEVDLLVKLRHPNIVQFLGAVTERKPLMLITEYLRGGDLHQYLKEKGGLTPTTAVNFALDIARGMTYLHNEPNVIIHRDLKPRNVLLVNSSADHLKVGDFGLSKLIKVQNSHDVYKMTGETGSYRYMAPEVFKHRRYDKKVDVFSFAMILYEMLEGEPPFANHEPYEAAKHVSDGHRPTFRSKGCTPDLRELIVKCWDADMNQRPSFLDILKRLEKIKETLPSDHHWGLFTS
Put plainly: pull-down; GST-LBD18 immobilised on Glutathione Beads, incubated with His-VIK or His-MBP at 4 °C for 4 h; washed five times with 1 x PBS; blot with anti-His and anti-GST. The conditions noted are these: both partners purified.

B1: GST-LBD18 (natural protein, Arabidopsis, UniProt O22131 1-262, looked up)
chain: MSGGGNTITAVGGGGGGCGGGGSSGGGGSSGGGGGGPCGACKFLRRKCVPGCIFAPYFDSEQGSAYFAAVHKVFGASNVSKLLLHIPVHRRSDAVVTICYEAQARIRDPIYGCVAHIFALQQQVVNLQAEVSYLQAHLASLELPQPQTRPQPMPQPQPLFFTPPPPLAITDLPASVSPLPSTYDLASIFDQTTSSSAWATQQRRFIDPRHQYGVSSSSSSVAVGLGGENSHDLQALAHELLHRQGSPPPAATDHSPSRTMSR
notes: the words full length are not used for this construct; also called recombinant GST-LBD18; source: E. coli BL21 (DE3), purified (Glutathione Beads); not shown: GST, N-terminal, kept
On to B1, for which the binding result is given as “binds”.

For the origin of these results see PMC11434109, “VIK‐Mediated Auxin Signaling Regulates Lateral Root Development in Arabidopsis” (Advanced Science, 2024).
